± gives the standard error. For part of these data: Variants at the floor of the assay were thinned out.
B1: glmS ribozyme (parent)
chain: AUAAAAGCGCCAGAACUACAGAAAUGUAGUUGACGAGGAGGAGGUUUAUCGAAUUUUCGGCGGAUGCCUCCAAA

What was measured:
Conditions in all cases: with glucosamine-6-phosphate
glucosamine-6-phosphate [1] = variants of: B1; assay: kcat; higher = faster cleavage; RNA array
Summary of the method: (§1)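 Over ~14 h at 37 °C, tiles were imaged as glucosamine-6-phosphate (40 μM to 10 mM) in HEPES/KCl/Mg(OAc)2 buffer flowed across sequenced MiSeq chips. The chips carried barcoded ribozyme variants transcribed in situ by E. coli RNA polymerase and tracked with a hybridised Cy3 probe. After normalisation to baseline and to non-cleaving reference variants, one- or two-exponential decay fits of per-tile medians gave kobs. kcat and KM followed from weighted Michaelis–Menten fits across concentrations.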

glucosamine-6-phosphate [2] = variants of: B1; assay: KM; higher = weaker cofactor use; RNA array
Summary of the method: as §1

glucosamine-6-phosphate [3] = variants of: B1; assay: self-cleavage kobs at 640 uM GlcN6P; higher = faster cleavage; RNA array
Summary of the method: as §1

glucosamine-6-phosphate [4] = variants of: B1; assay: self-cleavage kobs at 2500 uM GlcN6P; higher = faster cleavage; RNA array
Summary of the method: as §1

glucosamine-6-phosphate [5] = variants of: B1; assay: self-cleavage kobs at 10000 uM GlcN6P; higher = faster cleavage; RNA array
Summary of the method: as §1

glucosamine-6-phosphate [6] = variants of: B1; assay: self-cleavage kobs at 40 uM GlcN6P; higher = faster cleavage; RNA array
Summary of the method: as §1

glucosamine-6-phosphate [7] = variants of: B1; assay: self-cleavage kobs at 160 uM GlcN6P; higher = faster cleavage; RNA array
Summary of the method: as §1

Row | Variant | kcat (glucosamine-6-phosphate [1]) [s⁻¹] | KM (glucosamine-6-phosphate [2]) [µM] | self-cleavage kobs at 640 uM GlcN6P (glucosamine-6-phosphate [3]) [s⁻¹] | self-cleavage kobs at 2500 uM GlcN6P (glucosamine-6-phosphate [4]) [s⁻¹] | self-cleavage kobs at 10000 uM GlcN6P (glucosamine-6-phosphate [5]) [s⁻¹] | self-cleavage kobs at 40 uM GlcN6P (glucosamine-6-phosphate [6]) [s⁻¹] | self-cleavage kobs at 160 uM GlcN6P (glucosamine-6-phosphate [7]) [s⁻¹]
1 | AUAAAAGCGCCAGAACUACAGAAAUGUAGUUGACGAGGAGGUGGUUUAUCGAAUCUUCGGCGGAUGCCUCCAAA [A42U U55C] | 0.000267 ± 2.5e-05 | 1350 ± 250 | 8.56e-05 ± 9.8e-06 | 0.000198 ± 3e-05 | 0.000223 ± 3e-05 | – | –
2 | AUAAAAGCGCCAGAACUACAGAAAUGUAGUUGACGAGGAGGAAGUUUAUCGAAUUUUCGGCGGAUGGCUCCAAA [G43A C67G] | 0.00156 ± 0.00014 | 2110 ± 290 | 0.000321 ± 5.4e-05 | 0.000994 ± 0.00015 | 0.00126 ± 0.00013 | 2.87e-05 ± 6.8e-06 | 0.000114 ± 1.3e-05
3 | AUAAAAGCGCCAGAACUACAGAAAUGUAGUUGACGAGGAGGACGGUUAUCGAAUUUUCGGCGGAUGCCUCCAAA [G43C U45G] | 0.00237 ± 0.00082 | – | 0.000694 ± 0.00012 | 0.00109 ± 0.00024 | 0.00211 ± 0.00027 | 8.35e-05 ± 1.2e-05 | 0.000135 ± 2.3e-05
4 | AUAAAAGCGCCAGAACUACAGAAAUGUAGUUGACGAGGAGGUGGUUUAUCGAGUUUUCGGCGGAUGCCUCCAAA [A42U A53G] | 0.000266 ± 4.7e-05 | 2160 ± 870 | 4.83e-05 ± 1.2e-05 | 0.000175 ± 2.1e-05 | 0.000206 ± 2.4e-05 | – | –
5 | AUAAAAGCGCCAGAACUACAGAAAUGUAGUUGACGAGGAGGUGGUUUAUCGAUUUUUCGGCGGAUGCCUCCAAA [A42U A53U] | 0.000105 ± 1.1e-05 | – | – | 8.5e-05 ± 1.5e-05 | 9.14e-05 ± 8.2e-06 | – | –
6 | AUAAAAGCGCCAGAACUACAGAAAUGUAGUUGACGAGGAGGUGGUUUAUCGACUUUUCGGCGGAUGCCUCCAAA [A42U A53C] | 0.000148 ± 2.3e-05 | 3050 ± 1500 | – | 7.29e-05 ± 2e-05 | 0.000113 ± 1.6e-05 | – | –
7 | AUAAAAGCGCCAGAACUACAGAAAUGUAGUUGACGAGGAGGAAGAUUAUCGAAUUUUCGGCGGAUGCCUCCAAA [G43A U45A] | 5.51e-05 ± 7.6e-07 | 2720 ± 100 | – | 2.63e-05 ± 1.1e-05 | 4.33e-05 ± 1.3e-05 | – | –
8 | AUAAAAGCGCCAGAACUACAGAAAUGUAGUUGACGAGGAGGUGGUUUAUCGAAUUUUCGGCGGAGGCAUCCAAA [A42U U65G C68A] | 2.17e-05 ± 1.1e-05 | – | – | – | – | – | < 1e-05
9 | AUAAAAGCGCCAGAACUACAGAAAUGUAGUUGACGAGGAGGAAGUUUAUCGAAUUGUCGGCGGAUGCCUCCAAA [G43A U56G] | 4.8e-05 ± 2.6e-07 | 3400 ± 58 | – | – | 3.58e-05 ± 9e-06 | – | –
10 | AUAAAAGCGCCAGAACUACAGAAAUGUAGUUGACGAGGAGGACGUUUAUCGAAUUUUCGGCGGAUGCAUCCAAA [G43C C68A] | 1.06e-05 ± 2.2e-06 | – | – | – | – | < 1e-05 | –
11 | AUAAAAGCGCCAGAACUACAGAAAUGUAGUUGACGAGGAGGGGGUUUAUCGAAGUUUCGGCGGAUGCCUCCAAA [A42G U54G] | 0.0467 ± 0.012 | 2110 ± 650 | 0.0108 ± 0.0031 | 0.0229 ± 0.0093 | 0.0409 ± 0.011 | 0.00111 ± 0.00022 | 0.00287 ± 0.00056
12 | AUAAAAGCGCCAGAACUACAGAAAUGUAGUUGACGAGGAGGGGGUUUAUCGAAUUUUCGGCGGAAGCCUCCAAA [A42G U65A] | 0.00459 ± 0.0018 | – | 0.00121 ± 0.00028 | 0.00291 ± 0.00077 | 0.00423 ± 0.0014 | 0.000318 ± 9.9e-05 | 0.000409 ± 8.8e-05
13 | AUAAAAGCGCCAGAACUACAGAAAUGUAGUUGACGAGGAGGUGGUUUUUCGAAUUUUCGGCGGUUGCUUCCAAA [A42U A48U A64U C68U] | < 1e-05 | 11.3 ± 3.5 | – | < 1e-05 | < 1e-05 | – | –
14 | AUAAAAGCGCCAGAACUACAGAAAUGUAGUUGACGAGGAGGGGGUUUAUCGAAUUUACGGCGGAUGCCUCCAAA [A42G U57A] | 0.000299 ± 4.6e-05 | – | 0.000118 ± 3.7e-05 | 0.000351 ± 0.00012 | 0.000266 ± 4.4e-05 | < 1e-05 | –
15 | AUAAAAGCGCCAGAACUACAGAAAUGUAGUUGACGAGGAGGGGGUUUAUCGAAUUUUCGGCGGAUGCCCCCAAA [A42G U69C] | 0.0183 ± 0.0052 | 599 ± 250 | 0.0132 ± 0.0044 | 0.0132 ± 0.0041 | – | 0.00116 ± 0.00032 | 0.00336 ± 0.0014
16 | AUAAAAGCGCCAGAACUACAGAAAUGUAGUUGACGAGGAGGUGGUGUAUCGAAUUUUCGGCGGAUGCCUCCAAA [A42U U46G] | 5.79e-05 ± 3.4e-06 | 901 ± 260 | 2.81e-05 ± 1.4e-05 | 3.86e-05 ± 1.2e-05 | 5.41e-05 ± 8.3e-06 | – | –
17 | AUAAAAGCGCCAGAACUACAGAAAUGUAGUUGACGAGGAGGUGGUAUAUCGAAUUUUCGGCGGAUGCCUCCAAA [A42U U46A] | 0.000165 ± 3.2e-05 | 4410 ± 1900 | – | 7.32e-05 ± 1.7e-05 | 0.000112 ± 1.7e-05 | – | –
